Laboratory results taken from publication PMC9890227.

What was measured:
Experiment in all cases: EMSA
MutSbeta (MSH2-MSH3) = MutSbeta (MSH2-MSH3) (Homo sapiens, UniProt P43246;P20585 1-934;1-1137)
MutLbeta (MLH1-PMS1) = MutLbeta (MLH1-PMS1) (Homo sapiens, UniProt P40692;P54277 1-756;1-932)
MutLgamma (MLH1-MLH3) = MutLgamma (MLH1-MLH3) (Homo sapiens, UniProt P40692;Q9UHC1 1-756;1-1453)

Measured: binding result

Sequence of MutLgamma (MLH1-MLH3) (P40692 whole entry, chain 1 of 2): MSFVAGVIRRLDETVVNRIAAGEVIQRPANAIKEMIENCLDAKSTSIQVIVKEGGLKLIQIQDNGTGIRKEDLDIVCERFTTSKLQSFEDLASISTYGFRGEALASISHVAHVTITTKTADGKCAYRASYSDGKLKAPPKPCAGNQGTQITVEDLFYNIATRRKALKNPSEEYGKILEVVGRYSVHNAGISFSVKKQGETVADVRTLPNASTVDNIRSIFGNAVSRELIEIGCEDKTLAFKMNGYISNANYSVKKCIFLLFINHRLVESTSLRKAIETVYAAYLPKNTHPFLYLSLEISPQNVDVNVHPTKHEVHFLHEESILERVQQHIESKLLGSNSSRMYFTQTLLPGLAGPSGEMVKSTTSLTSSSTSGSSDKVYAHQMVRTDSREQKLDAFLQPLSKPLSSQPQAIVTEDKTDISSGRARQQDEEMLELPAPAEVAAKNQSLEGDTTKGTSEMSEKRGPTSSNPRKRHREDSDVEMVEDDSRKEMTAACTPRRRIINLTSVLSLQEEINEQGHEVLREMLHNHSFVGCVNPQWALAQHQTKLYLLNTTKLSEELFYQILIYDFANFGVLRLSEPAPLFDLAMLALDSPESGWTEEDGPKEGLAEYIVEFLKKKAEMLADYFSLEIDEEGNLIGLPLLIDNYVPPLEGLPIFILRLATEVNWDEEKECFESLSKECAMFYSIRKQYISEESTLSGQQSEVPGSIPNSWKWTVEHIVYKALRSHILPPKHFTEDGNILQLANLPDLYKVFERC
Sequence of MutLgamma (MLH1-MLH3) (Q9UHC1 whole entry, chain 2 of 2): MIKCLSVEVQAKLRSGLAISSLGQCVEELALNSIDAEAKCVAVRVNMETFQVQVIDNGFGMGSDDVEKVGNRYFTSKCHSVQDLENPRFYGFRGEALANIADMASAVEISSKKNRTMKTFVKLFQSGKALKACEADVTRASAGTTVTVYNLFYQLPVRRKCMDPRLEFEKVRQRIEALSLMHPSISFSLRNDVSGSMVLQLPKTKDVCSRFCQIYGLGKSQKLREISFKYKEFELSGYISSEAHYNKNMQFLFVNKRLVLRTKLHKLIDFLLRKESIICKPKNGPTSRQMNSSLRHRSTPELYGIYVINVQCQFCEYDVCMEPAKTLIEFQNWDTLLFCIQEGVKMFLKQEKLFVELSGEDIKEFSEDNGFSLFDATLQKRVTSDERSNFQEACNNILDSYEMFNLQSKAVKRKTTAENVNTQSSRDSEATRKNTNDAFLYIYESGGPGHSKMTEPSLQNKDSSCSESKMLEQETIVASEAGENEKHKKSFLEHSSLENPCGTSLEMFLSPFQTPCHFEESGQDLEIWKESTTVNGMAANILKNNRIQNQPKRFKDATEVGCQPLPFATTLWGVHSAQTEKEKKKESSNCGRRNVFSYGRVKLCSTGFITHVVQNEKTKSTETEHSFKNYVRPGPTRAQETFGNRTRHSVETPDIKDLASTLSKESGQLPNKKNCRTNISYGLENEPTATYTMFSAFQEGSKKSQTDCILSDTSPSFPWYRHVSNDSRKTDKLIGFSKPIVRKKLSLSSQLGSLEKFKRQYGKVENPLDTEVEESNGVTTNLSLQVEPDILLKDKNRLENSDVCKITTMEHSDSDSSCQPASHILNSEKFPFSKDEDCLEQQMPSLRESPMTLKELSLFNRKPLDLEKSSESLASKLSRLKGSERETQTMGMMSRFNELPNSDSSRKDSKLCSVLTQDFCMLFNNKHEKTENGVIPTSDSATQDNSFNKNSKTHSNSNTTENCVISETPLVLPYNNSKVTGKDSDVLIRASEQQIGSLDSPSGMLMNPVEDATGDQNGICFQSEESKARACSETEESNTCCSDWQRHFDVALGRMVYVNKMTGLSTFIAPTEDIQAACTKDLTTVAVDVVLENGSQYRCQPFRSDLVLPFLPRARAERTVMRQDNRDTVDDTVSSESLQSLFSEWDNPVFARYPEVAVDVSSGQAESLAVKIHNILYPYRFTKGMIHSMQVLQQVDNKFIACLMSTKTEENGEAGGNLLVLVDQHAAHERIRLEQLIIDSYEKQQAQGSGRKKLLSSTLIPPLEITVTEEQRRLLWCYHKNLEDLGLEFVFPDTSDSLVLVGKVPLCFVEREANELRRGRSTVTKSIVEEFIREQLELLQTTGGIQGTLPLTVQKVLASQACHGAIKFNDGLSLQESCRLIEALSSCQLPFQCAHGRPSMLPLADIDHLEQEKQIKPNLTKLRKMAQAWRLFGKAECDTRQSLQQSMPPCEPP
Sequence of MutLbeta (MLH1-PMS1) (P40692 whole entry, chain 1 of 2): as the sequence (P40692 whole entry, chain 1 of 2) above
Sequence of MutLbeta (MLH1-PMS1) (P54277 whole entry, chain 2 of 2): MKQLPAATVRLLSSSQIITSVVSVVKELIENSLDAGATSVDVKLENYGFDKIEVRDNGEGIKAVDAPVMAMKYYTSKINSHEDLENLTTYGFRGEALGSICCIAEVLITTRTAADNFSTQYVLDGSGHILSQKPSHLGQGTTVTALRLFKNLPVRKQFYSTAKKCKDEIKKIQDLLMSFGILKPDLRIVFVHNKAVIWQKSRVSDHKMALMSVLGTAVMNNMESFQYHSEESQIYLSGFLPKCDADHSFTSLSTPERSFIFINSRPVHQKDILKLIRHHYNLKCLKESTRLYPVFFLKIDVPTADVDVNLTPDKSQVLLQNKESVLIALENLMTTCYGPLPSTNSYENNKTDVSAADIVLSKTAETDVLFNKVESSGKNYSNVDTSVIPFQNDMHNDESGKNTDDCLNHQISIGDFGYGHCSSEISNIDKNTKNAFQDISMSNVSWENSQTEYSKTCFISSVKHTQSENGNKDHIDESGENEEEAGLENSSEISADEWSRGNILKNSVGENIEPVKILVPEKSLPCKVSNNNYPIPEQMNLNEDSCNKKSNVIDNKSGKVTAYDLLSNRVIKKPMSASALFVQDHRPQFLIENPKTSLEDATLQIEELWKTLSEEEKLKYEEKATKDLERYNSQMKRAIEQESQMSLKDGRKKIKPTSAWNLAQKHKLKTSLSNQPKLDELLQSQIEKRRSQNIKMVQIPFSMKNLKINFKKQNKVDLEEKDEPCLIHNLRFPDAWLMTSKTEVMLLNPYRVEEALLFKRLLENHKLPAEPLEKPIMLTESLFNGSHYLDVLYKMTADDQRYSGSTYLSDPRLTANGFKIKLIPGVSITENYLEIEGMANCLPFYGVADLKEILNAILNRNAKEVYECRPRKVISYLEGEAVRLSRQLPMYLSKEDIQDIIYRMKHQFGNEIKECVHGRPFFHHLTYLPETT

B1: Holliday junction (PC1253/PC1254/PC1255/PC1256) (structured_DNA)
DNA 1: TGGGTCAACGTGGGCAAAGATGTCCTAGCAATGTAATCGTCTATGACGTT
DNA 2: TGCCGAATTCTACCAGTGCCAGTGATGGACATCTTTGCCCACGTTGACCC
DNA 3: GTCGGATCCTCTAGACAGCTCCATGATCACTGGCACTGGTAGAATTCGGC
DNA 4: CAACGTCACAGACGATTACATTGCTACATGGAGCTGTCTAGAGGATCCGA
binds: all assays above
